T1: fluorogenic peptide substrate to ADAM10 (Mca-PLAQAV-Dpa-RSSR)
T1 chain: PLAQAVXRSSR

B1: recombinant human ADAM10 (rhADAM10) (protein)
chain: TTSAEKNTCQLYIQTDHLFFKYYGTREAVIAQISSHVKAIDTIYQTTDFSGIRNISFMVKRIRINTTADEKDPTNPFRFPNIGVEKFLELNSEQNHDDYCLAYVFTDRDFDDGVLGLAWVGAPSGSSGGICEKSKLYSDGKKKSLNTGIITVQNYGSHVPPKVSHITFAHEVGHNFGSPHDSGTECTPGESKNLGQKENGNYIMYARATSGDKLNNNKFSLCSIRNISQVLEKKRNNCFVESGQPICGNGMVEQGEECDCGYSDQCKDECCFDANQPEGRKCKLKPGKQCSPSQGPCCTAQCAFKSKSEKCRDDSDCAREGICNGFTALCPASDPKPNFTDCNRHTQVCINGQCAGSICEKYGLEECTCASSDGKDDKELCHVCCMKKMDPSTCASTGSVQWSRHFSGRTITLQPGSPCNDFRGYCDVFMRCRLVDADGPLARLKKAIFSPELYENIAE
B2: ADAM10 on the surface of HCC cells (HepG2) (protein)
chain: TTSAEKNTCQLYIQTDHLFFKYYGTREAVIAQISSHVKAIDTIYQTTDFSGIRNISFMVKRIRINTTADEKDPTNPFRFPNIGVEKFLELNSEQNHDDYCLAYVFTDRDFDDGVLGLAWVGAPSGSSGGICEKSKLYSDGKKKSLNTGIITVQNYGSHVPPKVSHITFAHEVGHNFGSPHDSGTECTPGESKNLGQKENGNYIMYARATSGDKLNNNKFSLCSIRNISQVLEKKRNNCFVESGQPICGNGMVEQGEECDCGYSDQCKDECCFDANQPEGRKCKLKPGKQCSPSQGPCCTAQCAFKSKSEKCRDDSDCAREGICNGFTALCPASDPKPNFTDCNRHTQVCINGQCAGSICEKYGLEECTCASSDGKDDKELCHVCCMKKMDPSTCASTGSVQWSRHFSGRTITLQPGSPCNDFRGYCDVFMRCRLVDADGPLARLKKAIFSPELYENIAEWIVAHWWAVLLMGIALIMLMAGFIKICSVHTPSSNPKLPPPKPLPGTLKRRRPPQPIQQPQRQRPRESYQMGHMRR

Target: T1, fluorogenic peptide substrate to ADAM10 …

| Protein | fluorescence intensity (fluorogenic peptide cleavage assay) |
| --- | --- |
| B1 | the recombinant human ADAM10 (rhADAM10) which serves as a positive control |
| B2 | after incubation with HCC cells, the fluorogenic peptide significantly increased the fluorescence intensity, stronger than the recombinant human ADAM10 (rhADAM10) which serves as a positive control |
